The subject of this test is α4β7 integrin binding to MAdCAM-1. The test can be described thus: Competitive inhibition of binding of α4β7 on RPMI8866 cells to MAdCAM-1 by peptides, viruses, IMCs and controls. The class given is cell-based, human. The settings on record: for % Inhibition ± SD of α4β7 integrin binding to MAdCAM-1: average of 3–7 experiments in triplicate. As for the experimental part:
96-well plates were coated with MAdCAM-1 as described above. RPMI8866 cells (2 X 10^6/ ml) were incubated with cyclic V2 or V3 MN, TH023, or acute subtype C (C-6980v0c22) peptides or with scrambled flanking region (SFL) or the mid region (SMR) TH023 V2 or with a completely scrambled (SCR) TH023 peptide (10 μg/ml) for 45 minutes at 37°C before being added in triplicate to the MAdCAM-1 coated plates for 1 hour at 37°C. In concurrent experiments, RMI8866 cells were incubated with purified primary HIV-1 (0.75 ng to 6 ng/well p24) subtype B (SF162, US-1, JRFL), subtype CRF01_AE viruses (92TH023), IMCs (0.75 ng to 1000 ng/well p24 in each case) containing acute or chronic envelopes (Acute CRF01_AE (703357) [GenBank:JN944658], C (C-6980v0c22) [GenBank:HM215344], A(851891); Chronic CRF01_AE (CM235.2) [AF259954.1], C (ET02220LucR) [U46016]) or with pSG3Δenv. pSG3Δenv contained a four-nucleotide insertion mutation (CTAG) in Env, leading to a translation stop codon after amino acid residue 142. The pSG3Δenv clone is routinely used for generating Env pseudotyped infectious virions.
Viruses were tested in triplicate in two independent experiments. In additional experiments, mannose, HIV-1 p24, and ovalbumin (0.2–10 μg/ml) were used in the competition assay as nonspecific protein controls (data in Table 2; 3–7 experiments performed in triplicate), whereas, an anti-RSV mAb, Synagis® was used as a nonspecific antibody control. Synagis® was incubated for 45 minutes with either MAdCAM-1 or with RPMI8866 cells and then placed in the assay system. The remainder of the assay was similar to that described above. Significance was determined by paired Student’s t test.

The values below come from publication PMC4666614, “Identification of New Regions in HIV-1 gp120 Variable 2 and 3 Loops that Bind to α4β7 Integrin Receptor” (PLoS ONE, 2015).

B1: Ovalbumin: nonspecific protein control (protein)
chain: MGSIGAASMEFCFDVFKELKVHHANENIFYCPIAIMSALAMVYLGAKDSTRTQINKVVRFDKLPGFGDSIEAQCGTSVNVHSSLRDILNQITKPNDVYSFSLASRLYAEERYPILPEYLQCVKELYRGGLEPINFQTAADQARELINSWVESQTNGIIRNVLQPSSVDSQTAMVLVNAIVFKGLWEKAFKDEDTQAMPFRVTEQESKPVQMMYQIGLFRVASMASEKMKILELPFASGTMSMLVLLPDEVSGLEQLESIINFEKLTEWTSSNVMEERKIKVYLPRMKMEEKYNLTSVLMAMGITDVFSSSANLSGISSAESLKISQAVHAAHAEINEAGREVVGSAEAGVDAASVSEEFRADHPFLFCIKHIATNAVLFFGRCVSP
Take B1: the “% Inhibition ± SD of α4β7 integrin binding to MAdCAM-1” value reads like this: (0.2 μg/ml) 7.2 ± 12.5%; (1.0 μg/ml) 2.0 ± 3.5%; (5 μg/ml) 13.6 ± 11.8%. Also, the “% Inhibition of α4β7 integrin binding to MAdCAM-1” value (10 μg/ml, average of triplicate determinations from a single experiment) is reported as 18%. For the same molecule, the “Inhibition of α4β7 integrin binding to MAdCAM-1 by nonspecific controls (in words)” value (0.2–10 μg/ml) is reported as “no significant inhibition”.
